Laboratory results published in article PMC6511015 (Proceedings of the National Academy of Sciences of the …, 2019).
Positions count from the first letter of the chain named. Names and notes keep the numbering of the source. Read-outs that look alike come from different tables or passages of the source.

B1: Escherichia coli dGTPase, wild type (enzyme)
chain: MAQIDFRKKINWHRRYRSPQGVKTEHEILRIFESDRGRIINSPAIRRLQQKTQVFPLERNAAVRTRLTHSMEVQQVGRYIAKEILSRLKELKLLEAYGLDELTGPFESIVEMSCLMHDIGNPPFGHFGEAAINDWFRQRLHPEDAESQPLTDDRCSVAALRLRDGEEPLNELRRKIRQDLCHFEGNAQGIRLVHTLMRMNLTWAQVGGILKYTRPAWWRGETPETHHYLMKKPGYYLSEEAYIARLRKELNLALYSRFPLTWIMEAADDISYCVADLEDAVEKRIFTVEQLYHHLHEAWGQHEKGSLFSLVVENAWEKSRSNSLSRSTEDQFFMYLRVNTLNKLVPYAAQRFIDNLPAIFAGTFNHALLEDASECSDLLKLYKNVAVKHVFSHPDVERLELQGYRVISGLLEIYRPLLSLSLSDFTELVEKERVKRFPIESRLFHKLSTRHRLAYVEAVSKLPSDSPEFPLWEYYYRCRLLQDYISGMTDLYAWDEYRRLMAVEQ
B2: Escherichia coli dGTPase H126A (enzyme)
chain: B1 chain with H126A
B3: Escherichia coli dGTPase E129A (enzyme)
chain: B1 chain with E129A
B4: Escherichia coli dGTPase Y272A (enzyme)
chain: B1 chain with Y272A

Experiments:
[1] = molecular target: the molecule itself; experiment: crystal structure
[2] = molecular target: the molecule itself

Row | Protein | stoichiometry N [1] | stoichiometry N [2]
1 | B1 | 6 | 
2 | B2 |  | 6
3 | B3 |  | 6
4 | B4 |  | 6
